Drawing on publication PMC10786891, “Massively parallel profiling of RNA-targeting CRISPR-Cas13d”, this text covers Kd for 13 molecules.

As usually defined, the Kd is the free concentration of one partner at which half of the binding sites on the other are occupied at equilibrium, for simple one-to-one binding. Higher therefore signals weaker binding.

B1: target 2 MT 5'PFS ACU 3'PFS AAC (mixed)
RNA 1: CACCCGUGCAAAAUUGCAGGGGUCUAAAACCUUCUCCAAAUUGUUUCAUCCU
RNA 2: GGGAAUGGAUCCACAUCUACGAAUUCACUAGGAUGAAACAAUUUGGAGAAGAACAGAUCGGAAGAGCACACGU
B2: target 2 MT 5'PFS UCG 3'PFS CAC (mixed)
RNA 1: CACCCGUGCAAAAUUGCAGGGGUCUAAAACCUUCUCCAAAUUGUUUCAUCCU
RNA 2: GGGAAUGGAUCCACAUCUACGAAUUCUCGAGGAUGAAACAAUUUGGAGAAGCACAGAUCGGAAGAGCACACGU
B3: target 2 MT 5'PFS GUC 3'PFS GAC (mixed)
RNA 1: CACCCGUGCAAAAUUGCAGGGGUCUAAAACCUUCUCCAAAUUGUUUCAUCCU
RNA 2: GGGAAUGGAUCCACAUCUACGAAUUCGUCAGGAUGAAACAAUUUGGAGAAGGACAGAUCGGAAGAGCACACGU
B4: target 2 MT 5'PFS GCC 3'PFS AAU (mixed)
RNA 1: CACCCGUGCAAAAUUGCAGGGGUCUAAAACCUUCUCCAAAUUGUUUCAUCCU
RNA 2: GGGAAUGGAUCCACAUCUACGAAUUCGCCAGGAUGAAACAAUUUGGAGAAGAAUAGAUCGGAAGAGCACACGU
B5: target 2 MT 5'PFS GAU 3'PFS AGG (mixed)
RNA 1: CACCCGUGCAAAAUUGCAGGGGUCUAAAACCUUCUCCAAAUUGUUUCAUCCU
RNA 2: GGGAAUGGAUCCACAUCUACGAAUUCGAUAGGAUGAAACAAUUUGGAGAAGAGGAGAUCGGAAGAGCACACGU
B6: target 2 MT 5'PFS ACU 3'PFS AAU (mixed)
RNA 1: CACCCGUGCAAAAUUGCAGGGGUCUAAAACCUUCUCCAAAUUGUUUCAUCCU
RNA 2: GGGAAUGGAUCCACAUCUACGAAUUCACUAGGAUGAAACAAUUUGGAGAAGAAUAGAUCGGAAGAGCACACGU
B7: target 2 MT 5'PFS UCG 3'PFS CAA (mixed)
RNA 1: CACCCGUGCAAAAUUGCAGGGGUCUAAAACCUUCUCCAAAUUGUUUCAUCCU
RNA 2: GGGAAUGGAUCCACAUCUACGAAUUCUCGAGGAUGAAACAAUUUGGAGAAGCAAAGAUCGGAAGAGCACACGU
B8: target 2 MT 5'PFS ACU 3'PFS AAG (mixed)
RNA 1: CACCCGUGCAAAAUUGCAGGGGUCUAAAACCUUCUCCAAAUUGUUUCAUCCU
RNA 2: GGGAAUGGAUCCACAUCUACGAAUUCACUAGGAUGAAACAAUUUGGAGAAGAAGAGAUCGGAAGAGCACACGU
B9: target 2 MT 5'PFS ACU 3'PFS AAA (mixed)
RNA 1: CACCCGUGCAAAAUUGCAGGGGUCUAAAACCUUCUCCAAAUUGUUUCAUCCU
RNA 2: GGGAAUGGAUCCACAUCUACGAAUUCACUAGGAUGAAACAAUUUGGAGAAGAAAAGAUCGGAAGAGCACACGU
B10: target 2 MT 5'PFS GAU 3'PFS AGU (mixed)
RNA 1: CACCCGUGCAAAAUUGCAGGGGUCUAAAACCUUCUCCAAAUUGUUUCAUCCU
RNA 2: GGGAAUGGAUCCACAUCUACGAAUUCGAUAGGAUGAAACAAUUUGGAGAAGAGUAGAUCGGAAGAGCACACGU
B11: target 2 MT 5'PFS UCG 3'PFS CAG (mixed)
RNA 1: CACCCGUGCAAAAUUGCAGGGGUCUAAAACCUUCUCCAAAUUGUUUCAUCCU
RNA 2: GGGAAUGGAUCCACAUCUACGAAUUCUCGAGGAUGAAACAAUUUGGAGAAGCAGAGAUCGGAAGAGCACACGU
B12: target 1 insG 3' of 16,insU 3' of 12 (mixed)
RNA 1: CACCCGUGCAAAAAUGCAGGGGUCUAAAACUGAGCGGAUAACCUCUCUAUGG
RNA 2: GGGAAUGGAUCCACAUCUACGAAUUCGUACCAUAGAGGAGGUUUAUCCGCUCACCGAGAUCGGAAGAGCACACGU
B13: target 1 insA 3' of 2,insG 3' of 2 (mixed)
RNA 1: CACCCGUGCAAAAAUGCAGGGGUCUAAAACUGAGCGGAUAACCUCUCUAUGG
RNA 2: GGGAAUGGAUCCACAUCUACGAAUUCGUACCAUAGAGAGGUUAUCCGCUCAGACCGAGAUCGGAAGAGCACACGU

The target of this series is T1, EsCas13d, nuclease-dead (Eubacterium siraeum, UniProt B0MS50, R295A;H300A;R849A;H854A).
T1 sequence: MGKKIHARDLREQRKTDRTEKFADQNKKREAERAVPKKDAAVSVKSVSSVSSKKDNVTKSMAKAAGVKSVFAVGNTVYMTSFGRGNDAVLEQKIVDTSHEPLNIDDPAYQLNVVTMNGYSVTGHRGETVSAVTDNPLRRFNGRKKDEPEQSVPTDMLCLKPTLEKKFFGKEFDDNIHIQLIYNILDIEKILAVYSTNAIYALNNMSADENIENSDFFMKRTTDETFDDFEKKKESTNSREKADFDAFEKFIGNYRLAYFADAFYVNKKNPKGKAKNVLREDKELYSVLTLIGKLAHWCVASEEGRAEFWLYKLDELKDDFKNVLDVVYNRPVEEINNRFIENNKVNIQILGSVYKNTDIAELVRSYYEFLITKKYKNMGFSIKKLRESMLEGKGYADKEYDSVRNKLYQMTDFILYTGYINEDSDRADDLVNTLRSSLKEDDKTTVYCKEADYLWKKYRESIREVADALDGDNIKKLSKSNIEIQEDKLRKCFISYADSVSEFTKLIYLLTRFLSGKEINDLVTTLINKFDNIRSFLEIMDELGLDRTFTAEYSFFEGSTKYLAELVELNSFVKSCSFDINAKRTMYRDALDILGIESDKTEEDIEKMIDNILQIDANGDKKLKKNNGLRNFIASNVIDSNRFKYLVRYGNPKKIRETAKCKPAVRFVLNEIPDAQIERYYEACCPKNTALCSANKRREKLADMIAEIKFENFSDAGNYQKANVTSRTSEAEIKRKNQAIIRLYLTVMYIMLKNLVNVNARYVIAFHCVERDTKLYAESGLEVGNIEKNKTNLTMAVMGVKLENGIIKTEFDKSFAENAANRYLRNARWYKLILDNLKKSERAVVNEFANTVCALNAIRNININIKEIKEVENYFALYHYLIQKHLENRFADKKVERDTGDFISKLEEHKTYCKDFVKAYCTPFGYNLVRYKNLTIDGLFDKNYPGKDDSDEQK
The series can be described thus: crRNA (strand 1, pre-loaded); Mg2+; 40 mM Tris-HCl pH 7.5, 150 mM NaCl, 6 mM MgCl2, 1 mM DTT, 0.1% Tween-20, 0.2 mg/ml BSA; 25 C; 10 min per concentration, then washed. The settings on record: tags: His6-TwinStrep-SUMO cleaved; N-terminal SNAP kept (SNAP-Surface 488); label: 3' end held by stalled T7 RNA polymerase.
Take B1: binding was put at a Kd of 5.7 ± 0.8 nM.

With B2, binding was put at a Kd of 27 ± 8 nM.

Consider B3, for which the Kd came out at 12.2 ± 2.8 nM. For B4, the Kd turned out to be 18 ± 5 nM. As for B5, the affinity, expressed as Kd, was 10.4 ± 1 nM. Regarding B6, binding was put at a Kd of 4.1 ± 0.5 nM.

The molecule B7 came in with a Kd of 10.7 ± 1.9 nM. Molecule B8 yielded a Kd of 3.7 ± 0.5 nM.

B9 yielded a Kd of 4.7 ± 1.7 nM. Molecule B10 registered a Kd of 12.3 ± 2 nM. In turn, B11 gave an equilibrium dissociation constant (Kd) of 18.7 ± 2.6 nM.

In turn, B12 showed a Kd of 12.3 ± 0.9 nM.

B13: the Kd is 10.5 ± 1.2 nM.
